Data set [1] concerns the target DHFR (mouse, recombinant) (Mus musculus, UniProt P00375 SEQ:4-190). The data set can be described thus: Southwestern blot; 10 mM Tris pH 7.5, 5 mM Mg acetate, 2 mM DTT, 4 C. Conditions: tags: His tag; label: 5'-32P. The procedure: The DNA substrate selected in this case corresponds to an oligonucleotide (single strand DNA) corresponding to the sequence of cytosolic tRNAAla of A. thaliana (SEQ ID NO: 4). This chemically synthesized oligonucleotide (Sigma Aldrich) and labeled at 5′ was incubated with a membrane onto which the recombinant proteins DHFR and GFP were transferred. No interaction between GFP and the oligonucleotide was observed while a signal was obtained, reflecting an interaction between DHFR and the oligonucleotide.

Data set [2] deals with pSu9-GFP (UniProt P42212 SEQ:1-307). The data set can be described thus: stated unable to interact with tRNAAla; no effect on import. Conditions: label: 32P-UTP; tRNA.
Data set [3] has as its target T1, pSu9-DHFR (mouse DHFR fused to Neurospora crassa Su9 presequence) (Mus musculus, UniProt P00375 SEQ:1-259).
T1 chain: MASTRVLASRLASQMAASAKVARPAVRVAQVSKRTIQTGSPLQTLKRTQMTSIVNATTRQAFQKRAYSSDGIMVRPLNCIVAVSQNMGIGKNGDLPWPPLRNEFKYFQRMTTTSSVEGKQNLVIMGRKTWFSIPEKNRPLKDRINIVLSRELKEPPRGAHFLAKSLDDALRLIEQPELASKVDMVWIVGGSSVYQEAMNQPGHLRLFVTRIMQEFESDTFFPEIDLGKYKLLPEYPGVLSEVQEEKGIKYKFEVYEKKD
As to the kind of experiment: EMSA; shift increases with protein; legend names pSu9-DHFR, text says DHFR; 10 mM Tris pH 7.5, 50 mM NaCl, 1 mM MgCl2, 25 C. Conditions: label: 32P-UTP; tRNA. The procedure: The RNA-protein interaction was studied by means of the shift gel technique. The procedure used is the procedure No. TB110 of Promega, entitled <<gel shift assay system >>. The reaction is conducted in a 9 μL reaction volume comprising: […] of protein, 2 μL of gel shift buffer 5× (20% (v/v) glycerol, 5 mM MgCl₂, 2.5 mM EDTA, 2.5 mM DTT, 250 mM NACl, 50 mM Tris-HCL pH 7.5). The medium is incubated for 10 minutes at room temperature. One μL of radiolabelled tRNA (about 10 fmol corresponding to 20,000 cpm) is then added and the whole is then incubated under mild stirring at 25° C. After migration, the medium is added with one μL of load buffer (250 mM Tris-HCl pH 7.5, 40% (v/v) glycerol). The gel is prepared from a solution of 4% acrylamide/N,N′-methylene bisacrylamide (19/1) in TBE 0.5× buffer (45 mM Tris 45, 1.25 mM EDTA pH 8.3, 45 mM boric acid). The polymerization of the gel is catalyzed by adding 0.04% (w/v) APS and 0.04% (v/v) TEMED. Before charging the samples, the gel is set to a voltage of 350 V for 10 mins. Migration is then carried out for 20 mins at 350 V in the TBE 0.5× buffer. The gel is dried and then exposed against a Phosphorimager plate (Fuji) or subject to autoradiography.
The nucleic acid substrate selected in this case corresponds to the cytosolic tRNAAla of Arabidopsis thaliana (SEQ ID NO: 4). […]
For orientation: Mobility shift assays separate free from complexed probe on a gel.

B1: tRNAAla-sequence DNA oligonucleotide (ssDNA)
DNA: GGGGATGTAGCTCATATGGTAGAGCGCTCGCTTTGCATGCGAGAGGCACAGGGTTCGATTCCCTGCATCTCCACCA
Turning to B1, the binding result in data set [1] is listed as “binds”.

B2: cytosolic tRNAAla transcript (A. thaliana) (ssRNA)
RNA: GGGGAUGUAGCUCAUAUGGUAGAGCGCUCGCUUUGCAUGCGAGAGGCACAGGGUUCGAUUCCCUGCAUCUCCACCA
As to B2, the values for the binding result in data set [2] and in data set [3] were “no binding” and “binds”, respectively.

The values above are taken from patent US20120110693, “TARGETING NUCLEIC ACIDS IN MITOCHONDRIA” (published 2012).
